Assay results as given in patent US20140050738A1 (CANCER RESEARCH TECHNOLOGY, published 2014).

How the values were obtained:
[1] = target: recombinant human TACE ectodomain (Arg215-Arg651) (human) (UniProt P78536); assay: cell-based or functional assay
[2] = target: recombinant human TACE catalytic domain (Arg215-Val477-GlySer-His6) (human) (UniProt P78536); assay: cell-based or functional assay
[3] = target: T1, recombinant human TACE catalytic domain (Arg215-Val477-GlySer-His6) (human, UniProt P78536 215-477); assay: cell-based or functional assay
T1 sequence (P78536 other isoform, or with tags, fused parts or gaps limits assumed): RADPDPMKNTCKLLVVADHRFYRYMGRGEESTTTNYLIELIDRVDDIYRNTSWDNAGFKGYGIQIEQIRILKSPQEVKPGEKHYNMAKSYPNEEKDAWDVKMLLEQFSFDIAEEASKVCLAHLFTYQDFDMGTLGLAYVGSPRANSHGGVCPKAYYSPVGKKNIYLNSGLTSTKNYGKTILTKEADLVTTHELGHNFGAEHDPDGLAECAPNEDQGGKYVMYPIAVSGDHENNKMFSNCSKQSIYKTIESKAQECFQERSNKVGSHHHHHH

[4] = target: T2, recombinant human TACE ectodomain (Arg215-Arg651) (human, UniProt P78536 215-651); assay: cell-based or functional assay
T2 sequence (P78536 215-651): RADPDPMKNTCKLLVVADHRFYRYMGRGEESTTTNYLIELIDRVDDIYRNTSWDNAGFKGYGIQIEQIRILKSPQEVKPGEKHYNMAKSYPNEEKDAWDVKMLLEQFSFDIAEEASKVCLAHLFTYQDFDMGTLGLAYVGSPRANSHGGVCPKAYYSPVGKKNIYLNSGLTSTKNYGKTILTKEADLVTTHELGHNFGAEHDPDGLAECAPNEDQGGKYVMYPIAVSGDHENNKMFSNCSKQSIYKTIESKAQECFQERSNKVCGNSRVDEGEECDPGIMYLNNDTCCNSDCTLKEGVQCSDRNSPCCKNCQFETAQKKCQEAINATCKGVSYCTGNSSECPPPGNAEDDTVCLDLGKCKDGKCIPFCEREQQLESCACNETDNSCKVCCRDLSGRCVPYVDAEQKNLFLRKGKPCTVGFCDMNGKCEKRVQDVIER

[5] = target: cell surface TACE (human, UniProt P78536 215-824); assay: cell-based or functional assay
Sequence of cell surface TACE (P78536 215-824): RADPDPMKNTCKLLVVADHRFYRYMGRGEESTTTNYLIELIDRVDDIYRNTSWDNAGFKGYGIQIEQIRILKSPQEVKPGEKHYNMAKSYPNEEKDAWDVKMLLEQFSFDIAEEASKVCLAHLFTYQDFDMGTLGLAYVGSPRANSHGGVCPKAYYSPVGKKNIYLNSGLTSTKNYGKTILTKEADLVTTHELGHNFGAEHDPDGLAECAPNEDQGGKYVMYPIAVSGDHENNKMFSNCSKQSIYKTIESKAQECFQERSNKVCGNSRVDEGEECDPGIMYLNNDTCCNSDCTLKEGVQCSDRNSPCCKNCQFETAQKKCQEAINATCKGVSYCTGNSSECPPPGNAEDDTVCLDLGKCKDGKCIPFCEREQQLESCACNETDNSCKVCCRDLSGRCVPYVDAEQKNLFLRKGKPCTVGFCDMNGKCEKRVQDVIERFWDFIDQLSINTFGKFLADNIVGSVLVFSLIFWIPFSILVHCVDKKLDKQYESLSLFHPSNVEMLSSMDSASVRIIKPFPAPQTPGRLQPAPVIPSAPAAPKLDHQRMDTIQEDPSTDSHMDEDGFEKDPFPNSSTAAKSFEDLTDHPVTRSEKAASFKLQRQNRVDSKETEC

[6] = target: T1, recombinant human TACE catalytic domain …; assay: SPR (Biacore T100, 37 C): N-TIMP-3 amine-coupled to a CM5 chip, TACE catalytic domain injected (traces labelled 0.5 to 5 nM) [panel C, upper left]
Protocol: (§1) Results represent the mean values of blank-subtracted technical triplicates per concentration variable. All experiments were performed on a Biacore T100 (GE Healthcare) at 37° C. with a flow-rate of […]. Binding constants were calculated using Biacore T100 Evaluation Software (1:1 binding model; Rmax <200 RU; tc >1×10⁸; Chi²<0.5 RU².

[7] = target: T2, recombinant human TACE ectodomain …; assay: cell-based or functional assay; remark: listed apart in the source
[8] = target: T1, recombinant human TACE catalytic domain …; assay: SPR (Biacore T100, 37 C); N-TIMP-3 amine-coupled to CM5 chip, titrated TACE injected; 1:1 model
Protocol: as §1

[9] = target: T2, recombinant human TACE ectodomain …; assay: as above
Protocol: as §1

[10] = target: T2, recombinant human TACE ectodomain …; assay: SPR; ratio of the KD for the isolated catalytic domain to the KD for the ectodomain
Protocol: as §1

[11] = target: T2, recombinant human TACE ectodomain …; assay: competition ELISA: immobilised TACE ectodomain pre-incubated with titrated N-TIMP-3, then probed with D1(A12) FAb [panel B]
[12] = target: T2, recombinant human TACE ectodomain …; assay: SPR (Biacore T100, 37 C): N-TIMP-3 amine-coupled to a CM5 chip, TACE ectodomain injected (traces labelled 5 to 50 nM) [panel C, upper right]
Protocol: as §1

[13] = target: T2, recombinant human TACE ectodomain …; assay: inverted titration ELISA; ratio of the EC50 for the catalytic domain to the EC50 for the ectodomain
[14] = target: T1, recombinant human TACE catalytic domain …; assay: SPR (Biacore T100, 37 C); FAb amine-coupled to CM5 chip, titrated TACE injected; 1:1 model
Protocol: as §1

[15] = target: T2, recombinant human TACE ectodomain …; assay: as above
Protocol: as §1

[16] = target: T1, recombinant human TACE catalytic domain …; assay: inverted titration ELISA
[17] = target: T2, recombinant human TACE ectodomain …; assay: inverted titration ELISA
[18] = target: T1, recombinant human TACE catalytic domain …; assay: cell-based or functional assay; remark: listed apart in the source
[19] = target: T2, recombinant human TACE ectodomain …; assay: SPR (Biacore T100, 37 C): D1(A12) FAb amine-coupled to a CM5 chip, TACE ectodomain injected (traces labelled 0.25 to 6 nM) [panel C, lower right]
Protocol: as §1

[20] = target: T1, recombinant human TACE catalytic domain …; assay: SPR (Biacore T100, 37 C): D1(A12) FAb amine-coupled to a CM5 chip, TACE catalytic domain injected (traces labelled 1 to 15 nM) [panel C, lower left]
Protocol: as §1

[21] = target: T2, recombinant human TACE ectodomain …; assay: competition ELISA: 100 nM immobilised TACE ectodomain pre-incubated with titrated D1(A12) FAb, then probed for N-TIMP-3 binding [panel A]

Sequence of recombinant human TACE ectodomain (Arg215-Arg651) (human) (P78536 215-651): as the sequence (P78536 215-651) above
Sequence of recombinant human TACE catalytic domain (Arg215-Val477-GlySer-His6) (human) (P78536 other isoform, or with tags, fused parts or gaps limits assumed): as the sequence (P78536 other isoform, or with tags, fused parts or gaps limits assumed) above

B1: D1(A12) scFv (scFv, part only; not given: linker and tags, not shown: small tags and cut ends)
scFv, part: EVQLVESGGGLVRPGGSLRLSCAASGFTFSSYAMSWVRQAPGKGLEWVSAISGSGGSTYYADSVKGRFTISRDNTKNSLYLQMTSLRADDTAFYYCVKDFGPGYGTGWFDYWGPGTLVTVSASDIQMTQSPSSLSASVGDRVTITCRASQSISSYLNWYQQKPGKAPKLLIHDASSLQSGVPSRFSGSGSGTDFTLTISSLQPEDFATYYCQQSFSIPLTFGGGTKMDIKR
Binder B1 has an IC50, solution-phase QF-peptide assay (wild-type scFv) [1] of 0.89 nM and an IC50, solution-phase QF-peptide assay (wild-type scFv) [2] of 2.3 nM.

B2: N-TIMP-3 (other, UniProt P35625 24-144, looked up)
chain: CTCSPSHPQDAFCNSDIVIRAKVVGKKLVKEGPFGTLVYTIKQMKMYRGFTKMPHVQYIHTEASESLCGLKLEVNKYQYLLTGRVYDGKMYTGLCNFVERWDQLTLSQRKGLNYRYHLGCN
notes: domain: N-terminal fragment; also called amino-terminal domain of TIMP-3
In the case of B2, the “IC50 (nM), QF-peptide assay” value [3] is reported as 0.6 nM, the “Delta (IC50 ectodomain against IC50 catalytic domain)” value [4] is reported as 5.2 fold and the “IC50 (nM), QF-peptide assay” value [4] is reported as 3.1 nM. For the same binder, the “IC50 (nM), PMA-stimulated shedding of Amphiregulin from PC3 cells” value [5] was 53.3 nM, the “IC50 (nM), PMA-stimulated shedding of HB-EGF-AP from HeLa cells” value [5] was 47.3 nM and the “IC50 (nM), PMA-stimulated shedding of TGF-α from IGROV-1 cells” value [5] was 44.5 nM. The “IC50 (nM), PMA-stimulated shedding of TNF-α from TOV21G cells” value [5] was 48.5 nM, the “IC50 (nM), mean value of the five cell shedding assays” value [5] was 48.6 nM and the “IC50 (nM), shedding of TNFR1a from IGROV-1 cells” value [5] was 49.5 nM. The koff [6] was 2.1e-05 s⁻¹, the kon [6] was 100000 M⁻¹ s⁻¹ and the “IC50, quenched-fluorescent (QF) peptide cleavage assay” value [7] was 3.2 nM. The Kd [8] was 0.211 nM, the Kd [9] was 7.22 nM and the “ΔKD (KD Cat/KD Ecto)” value [10] was 0.03 fold. For the same binder, the “IC50 (read off the curve)” value [11] was about 20 nM, the koff [12] was 5.2e-05 s⁻¹ and the kon [12] was 7200 M⁻¹ s⁻¹.

B3: D1(A12) FAb (Fab, V domains shown)
VH: EVQLVESGGGLVRPGGSLRLSCAASGFTFSSYAMSWVRQAPGKGLEWVSAISGSGGSTYYADSVKGRFTISRDNTKNSLYLQMTSLRADDTAFYYCVKDFGPGYGTGWFDYWGPGTLVTVSA
VL: DIQMTQSPSSLSASVGDRVTITCRASQSISSYLNWYQQKPGKAPKLLIHDASSLQSGVPSRFSGSGSGTDFTLTISSLQPEDFATYYCQQSFSIPLTFGGGTKMDIKR
notes: Expressed in E. coli periplasm, purified on Protein G; also called monovalent D1(A12) human FAb
B3 was tested, and the “ΔEC50 (EC50 Cat/EC50 Ecto)” value [13] was 12.1 fold, the Kd [14] was 5.21 nM and the Kd [15] was 0.461 nM. The “IC50 (nM), QF-peptide assay” value [3] was 0.54 nM, the “Delta (IC50 ectodomain against IC50 catalytic domain)” value [4] was 0.8 fold and the “IC50 (nM), QF-peptide assay” value [4] was 0.45 nM. The EC50 [16] was 11.1 nM, the EC50 [17] was 0.92 nM and the “IC50, cleavage of GST-TNF-α (SDS-PAGE densitometry)” value [18] was 125 nM. For the same binder, the “ΔIC50 = IC50 Cat:N-TIMP-3 / IC50 Cat:D1(A12), QF-peptide assay” value [18] was 1.35 fold, the “IC50, cleavage of GST-TNF-α (SDS-PAGE densitometry)” value [7] was 73.9 nM and the “ΔIC50 = IC50 Ecto:N-TIMP-3 / IC50 Ecto:D1(A12), QF-peptide assay” value [7] was 5.75 fold. For the same binder, the koff [19] was 0.00024 s⁻¹, the kon [19] was 530000 M⁻¹ s⁻¹ and the “ΔKD (KD Cat/KD Ecto)” value [10] was 11.3 fold. The koff [20] was 0.00058 s⁻¹, the kon [20] was 110000 M⁻¹ s⁻¹ and the “IC50 (read off the curve)” value [21] was about 10 nM.

B4: D1(A12) human IgG1 (antibody, V domains shown)
VH: EVQLVESGGGLVRPGGSLRLSCAASGFTFSSYAMSWVRQAPGKGLEWVSAISGSGGSTYYADSVKGRFTISRDNTKNSLYLQMTSLRADDTAFYYCVKDFGPGYGTGWFDYWGPGTLVTVSA
VL: DIQMTQSPSSLSASVGDRVTITCRASQSISSYLNWYQQKPGKAPKLLIHDASSLQSGVPSRFSGSGSGTDFTLTISSLQPEDFATYYCQQSFSIPLTFGGGTKMDIKR
In the case of B4, the “Delta (IC50 N-TIMP-3 against IC50 D1(A12) IgG1), Amphiregulin, PC3” value [5] is reported as 5.7 fold, the “Delta (IC50 N-TIMP-3 against IC50 D1(A12) IgG1), HB-EGF-AP, HeLa” value [5] is reported as 6 fold and the “Delta (IC50 N-TIMP-3 against IC50 D1(A12) IgG1), TGF-α, IGROV-1” value [5] is reported as 4.7 fold. The “Delta (IC50 N-TIMP-3 against IC50 D1(A12) IgG1), TNF-α, TOV21G” value [5] was 4.3 fold, the “Delta (IC50 N-TIMP-3 against IC50 D1(A12) IgG1), TNFR1a, IGROV-1” value [5] was 4.7 fold and the “Delta, mean value of the five cell shedding assays” value [5] was 5.1 fold. The “IC50 (nM), PMA-stimulated shedding of Amphiregulin from PC3 cells” value [5] was 9.3 nM, the “IC50 (nM), PMA-stimulated shedding of HB-EGF-AP from HeLa cells” value [5] was 7.9 nM and the “IC50 (nM), PMA-stimulated shedding of TGF-α from IGROV-1 cells” value [5] was 9.4 nM. For the same binder, the “IC50 (nM), PMA-stimulated shedding of TNF-α from TOV21G cells” value [5] was 11.2 nM, the “IC50 (nM), mean value of the five cell shedding assays” value [5] was 9.6 nM and the “IC50 (nM), shedding of TNFR1a from IGROV-1 cells” value [5] was 10.4 nM.
